In the supplement of paper PMC10567573:

B1: C20orf112 (parent)
chain: YANGGLNYSYRGYGALSSNLQPPA
B2: CLCN6 (parent)
chain: VGEIVGIITRHNLTYEFLQARLRQ

Variants of: B1
Assay: protein stability index of a GFP-peptide fusion (GPS, HEK-293T) (PSI 1-6); higher = more stable
Details: c terminus: a fixed tail appended
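Note: lentivirally expressed fusions sorted by FACS into six bins by GFP to DsRed ratio, PSI derived from sequencing read proportions per bin multiplied by bin number.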

| Variant | protein stability index |
| --- | --- |
| YANGGLNYSYRGYGALSSNLQHPA | 1.94 |
| YANGGLNYSYRGYGALSSNLQIPA | 2.35 |
| YANGGLNYSYRGYGALSSNLQAPA | 1.5 |
| YANGGLNYSYRGYGALSSNLQFPA | 3.69 |
| YANGGLNYSYRGYGALSSNLQTPA | 1.71 |
| YANGGLNYSYRGYGALSSNLQVPA | 1.83 |
| YANGGLNYSYRGYGALSSNLQNPA | 2.33 |
| YANGGLNYSYRGYGALSSNLQPPQ | 2.27 |
| YANGGLNYSYRGYGALSSNLQPPN | 1.9 |
| YANGGLNYSYRGYGALSSNLQPPS | 1.82 |
| YANGGLNYSYRGYGALSSNLQPPM | 1.35 |
| YANGGLNYSYRGYGALSSNLQPPL | 1.62 |
| YANGGLNYSYRGYGALSSNLQPPD | 1.86 |
| YANGGLNYSYRGYGALSSNLQPPT | 2.52 |
| YANGGLNYSYRGYGALSSNLQPPP | 2.73 |
| YANGGLNYSYRGYGALSSNLQPPW | 1.86 |
| YANGGLNYSYRGYGALSSNLQPPI | 2.43 |
| YANGGLNYSYRGYGALSSNLQPPF | 1.78 |
| YANGGLNYSYRGYGALSSNLQPPY | 1.75 |
| YANGGLNYSYRGYGALSSNLQPPH | 2.19 |
| YANGGLNYSYRGYGALSSNLQPPR | 2.48 |
| YANGGLNYSYRGYGALSSNLQPPG | 3.04 |
| YANGGLNYSYRGYGALSSNLQPPC | 2.37 |
| YANGGLNYSYRGYGALSSNLQPPE | 1.95 |
| YANGGLNYSYRGYGALSSNLQPPV | 2.23 |
| YANGGLNYSYRGYGALSSNLQPPK | 2 |

Variants of: B2
Assay: as above
Details: c terminus: a fixed tail appended

| Variant | protein stability index |
| --- | --- |
| YGEIVGIITRHNLTYEFLQARLRQ | 2.83 |
| IGEIVGIITRHNLTYEFLQARLRQ | 2.88 |
| LGEIVGIITRHNLTYEFLQARLRQ | 1.76 |
| SGEIVGIITRHNLTYEFLQARLRQ | 2.31 |
| MGEIVGIITRHNLTYEFLQARLRQ | 2.29 |
| WGEIVGIITRHNLTYEFLQARLRQ | 2.47 |
| GGEIVGIITRHNLTYEFLQARLRQ | 1.27 |
| TGEIVGIITRHNLTYEFLQARLRQ | 1.65 |
| RGEIVGIITRHNLTYEFLQARLRQ | 1.58 |
| AGEIVGIITRHNLTYEFLQARLRQ | 1.44 |
| CGEIVGIITRHNLTYEFLQARLRQ | 2.26 |
| NGEIVGIITRHNLTYEFLQARLRQ | 3.06 |
| EGEIVGIITRHNLTYEFLQARLRQ | 2.25 |
| KGEIVGIITRHNLTYEFLQARLRQ | 2.18 |
| FGEIVGIITRHNLTYEFLQARLRQ | 2.41 |
| QGEIVGIITRHNLTYEFLQARLRQ | 2.08 |
| HGEIVGIITRHNLTYEFLQARLRQ | 2.82 |
| PGEIVGIITRHNLTYEFLQARLRQ | 1.44 |
| DGEIVGIITRHNLTYEFLQARLRQ | 2.41 |
| VDEIVGIITRHNLTYEFLQARLRQ | 2.23 |
| VEEIVGIITRHNLTYEFLQARLRQ | 1.75 |
| VPEIVGIITRHNLTYEFLQARLRQ | 1.86 |
| VTEIVGIITRHNLTYEFLQARLRQ | 2.6 |

| Variant | protein stability index |
| --- | --- |
| VVEIVGIITRHNLTYEFLQARLRQ | 2.66 |
| VCEIVGIITRHNLTYEFLQARLRQ | 2.06 |
| VAEIVGIITRHNLTYEFLQARLRQ | 3.29 |
| VNEIVGIITRHNLTYEFLQARLRQ | 3 |
| VQEIVGIITRHNLTYEFLQARLRQ | 1.13 |
| VWEIVGIITRHNLTYEFLQARLRQ | 3.19 |
| VKEIVGIITRHNLTYEFLQARLRQ | 2.53 |
| VLEIVGIITRHNLTYEFLQARLRQ | 2.48 |
| VHEIVGIITRHNLTYEFLQARLRQ | 2.81 |
| VMEIVGIITRHNLTYEFLQARLRQ | 1.09 |
| VYEIVGIITRHNLTYEFLQARLRQ | 1.98 |
| VGRIVGIITRHNLTYEFLQARLRQ | 2.51 |
| VGQIVGIITRHNLTYEFLQARLRQ | 3.17 |
| VGPIVGIITRHNLTYEFLQARLRQ | 3.11 |
| VGHIVGIITRHNLTYEFLQARLRQ | 2.38 |
| VGCIVGIITRHNLTYEFLQARLRQ | 2.72 |
| VGFIVGIITRHNLTYEFLQARLRQ | 1.43 |
| VGWIVGIITRHNLTYEFLQARLRQ | 2.42 |
| VGTIVGIITRHNLTYEFLQARLRQ | 1.74 |
| VGVIVGIITRHNLTYEFLQARLRQ | 2.62 |
| VGAIVGIITRHNLTYEFLQARLRQ | 2.59 |
| VGYIVGIITRHNLTYEFLQARLRQ | 3.28 |
| VGDIVGIITRHNLTYEFLQARLRQ | 2.05 |

| Variant | protein stability index |
| --- | --- |
| VGEIHGIITRHNLTYEFLQARLRQ | 1.92 |
| VGEIAGIITRHNLTYEFLQARLRQ | 1.89 |
| VGEIEGIITRHNLTYEFLQARLRQ | 1.76 |
| VGEIGGIITRHNLTYEFLQARLRQ | 2.29 |
| VGESVGIITRHNLTYEFLQARLRQ | 2.23 |
| VGEKVGIITRHNLTYEFLQARLRQ | 2.15 |
| VGEHVGIITRHNLTYEFLQARLRQ | 2.02 |
| VGEAVGIITRHNLTYEFLQARLRQ | 2.1 |
| VGELVGIITRHNLTYEFLQARLRQ | 2.59 |
| VGEPVGIITRHNLTYEFLQARLRQ | 2.88 |
| VGECVGIITRHNLTYEFLQARLRQ | 2.18 |
| VGEDVGIITRHNLTYEFLQARLRQ | 2.66 |
| VGERVGIITRHNLTYEFLQARLRQ | 2.72 |
| VGEEVGIITRHNLTYEFLQARLRQ | 2.51 |
| VGENVGIITRHNLTYEFLQARLRQ | 2.37 |
| VGEYVGIITRHNLTYEFLQARLRQ | 2.53 |
| VGEQVGIITRHNLTYEFLQARLRQ | 2.38 |
| VGEGVGIITRHNLTYEFLQARLRQ | 2.33 |
| VGEVVGIITRHNLTYEFLQARLRQ | 2.06 |
| VGEMVGIITRHNLTYEFLQARLRQ | 2.33 |
| VGETVGIITRHNLTYEFLQARLRQ | 1.75 |
| VGEFVGIITRHNLTYEFLQARLRQ | 1.52 |
